In paper PMC10700182, “A Bacterial Quorum Sensing Regulated Protease Inhibits Host Immune Responses by Cleaving Death Domains of Innate Immune Adaptors” (Advanced Science, 2023):

Target: the molecule itself
Assay: native gel or EMSA

B1: Myd88 DD^20-117-SNAP (domain or fragment)
chain: LPLAALNMRVRRRLSLFLNVRTQVAADWTALAEEMDFEYLEIRQLETQADPTGRLLDAWQGRPGASVGRLLELLTKLGRDDVLLELGPSIEEDCQKYI
modifications: benzylguanine dye (BG-647 or BG-488, AlexaFluor) on the SNAP tag
notes: also called MyD88 Death domain; MyD88 DD SNAP; source: E. coli BL21(DE3), purified (Ni-NTA agarose)
Question: Does B1 bind?
Answer: Result: binds
